Source: patent US20220119534A1 (DRAGONFLY THERAPEUTICS, published 2022)
“And” between values parts separate entries of the source, which are not always exact repeats. Equal entries are not always repeated. Values belong to the binder of their own block, whether it stands above or below them.

Assays:
[1] = target: T1, mFc-hNKG2D (recombinant mFc-tagged human NKG2D dimer) (human, UniProt P26718 73-216); assay: SPR; control sample
T1 construct: extracellular domain; Made in house; not shown: mouse Fc tag
T1 sequence (looked up): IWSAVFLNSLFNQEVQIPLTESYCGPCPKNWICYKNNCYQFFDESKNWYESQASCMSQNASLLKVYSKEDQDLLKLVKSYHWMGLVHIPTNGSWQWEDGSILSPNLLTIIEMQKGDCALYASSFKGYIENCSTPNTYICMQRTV

[2] = target: T2, Human CD16a V158 (FcγRIIIa V158) (human, UniProt P08637 17-208, biotinylated); assay: SPR; control sample
T2 construct: Bought recombinant receptor; also called hCD16aV; hFcγRIIIa V158
T2 sequence (P08637 17-208 F176V limits assumed): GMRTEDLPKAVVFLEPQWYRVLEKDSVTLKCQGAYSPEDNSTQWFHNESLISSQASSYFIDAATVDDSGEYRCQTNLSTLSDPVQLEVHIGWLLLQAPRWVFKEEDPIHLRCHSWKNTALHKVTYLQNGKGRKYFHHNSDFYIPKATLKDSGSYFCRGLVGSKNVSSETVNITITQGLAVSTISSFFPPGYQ

[3] = target: T3, Human CLEC12A expressed on cells (Ba/F3-hCLEC12A, PL21, HL60) (human, UniProt Q5QGZ9 1-265); assay: cell-based or functional assay
T3 sequence: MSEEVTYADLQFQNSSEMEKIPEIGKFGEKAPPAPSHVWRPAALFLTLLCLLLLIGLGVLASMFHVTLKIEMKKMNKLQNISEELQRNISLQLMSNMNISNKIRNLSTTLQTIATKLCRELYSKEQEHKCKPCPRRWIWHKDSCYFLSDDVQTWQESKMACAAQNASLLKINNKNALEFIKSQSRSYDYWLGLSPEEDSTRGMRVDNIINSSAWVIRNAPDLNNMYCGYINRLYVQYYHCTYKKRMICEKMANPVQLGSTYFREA

[4] = target: T3, Human CLEC12A expressed on cells …; assay: cell-based or functional assay; remark: listed apart in the source
[5] = target: T4, Human CLEC12A-His (recombinant, K244 WT) (human, UniProt Q5QGZ9 65-265); assay: SPR, two-state fit (kd1); after forced oxidation
T4 construct: Made in house (Dragonfly Tx); also called hCLEC12A; hCLEC12A-His; not shown: His tag
T4 sequence: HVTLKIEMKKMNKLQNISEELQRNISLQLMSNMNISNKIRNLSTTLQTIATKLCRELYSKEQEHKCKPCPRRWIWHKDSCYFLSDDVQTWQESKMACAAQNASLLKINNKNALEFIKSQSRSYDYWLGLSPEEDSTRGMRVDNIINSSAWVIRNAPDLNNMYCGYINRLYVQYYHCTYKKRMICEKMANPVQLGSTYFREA

[6] = target: T5, Human CD16a F158 (human, UniProt P08637 17-208, biotinylated); assay: SPR, steady state fit
T5 construct: Bought recombinant receptor; also called hFcγRIIIa F158
T5 sequence (P08637 17-208 limits assumed): as the sequence (P08637 17-208 F176V limits assumed) above, with V160F counted along it

[7] = target: T6, Cynomolgus CD16 (cynomolgus monkey, UniProt Q8SPW2 17-208, biotinylated); assay: SPR, steady state fit
T6 construct: Bought recombinant receptor; also called cFcγRIII; Cynomolgus FcγRIII
T6 sequence (Q8SPW2 17-208 limits assumed): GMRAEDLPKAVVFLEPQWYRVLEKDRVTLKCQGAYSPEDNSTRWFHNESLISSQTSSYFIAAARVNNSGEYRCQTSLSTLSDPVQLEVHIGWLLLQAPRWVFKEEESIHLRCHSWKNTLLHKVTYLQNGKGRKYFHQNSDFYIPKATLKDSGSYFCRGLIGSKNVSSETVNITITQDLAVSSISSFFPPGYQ

[8] = target: T7, Human CLEC12A-K244Q-His (human, UniProt Q5QGZ9 65-265); assay: SPR, hCLEC12A (Q244) variant
T7 construct: Polymorphic variant; also called hCLEC12A (Q244); not shown: His tag
T7 chain: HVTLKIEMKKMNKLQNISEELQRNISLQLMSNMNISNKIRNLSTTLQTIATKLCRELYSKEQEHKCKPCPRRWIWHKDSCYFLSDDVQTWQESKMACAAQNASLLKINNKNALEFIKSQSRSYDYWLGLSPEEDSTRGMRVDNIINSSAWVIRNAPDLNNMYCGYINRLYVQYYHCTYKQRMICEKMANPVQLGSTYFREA

[9] = target: T8, mFc-hNKG2D (human, UniProt P26718 73-216); assay: SPR, 37 C, mFc-hNKG2D captured, steady state fit
T8 construct: extracellular domain; Recombinant mFc-tagged NKG2D dimer, made in house; also called human NKG2D; not shown: mouse Fc tag
T8 sequence (looked up): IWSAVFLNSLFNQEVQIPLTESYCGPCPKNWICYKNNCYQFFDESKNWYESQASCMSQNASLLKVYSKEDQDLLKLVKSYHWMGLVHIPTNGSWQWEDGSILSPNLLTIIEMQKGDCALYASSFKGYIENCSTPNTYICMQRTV

[10] = target: T9, recombinant human CLEC12A-His (human, UniProt Q5QGZ9 65-265); assay: SPR 37C
T9 construct: also called hCLEC12A-His; hCLEC12A
T9 sequence: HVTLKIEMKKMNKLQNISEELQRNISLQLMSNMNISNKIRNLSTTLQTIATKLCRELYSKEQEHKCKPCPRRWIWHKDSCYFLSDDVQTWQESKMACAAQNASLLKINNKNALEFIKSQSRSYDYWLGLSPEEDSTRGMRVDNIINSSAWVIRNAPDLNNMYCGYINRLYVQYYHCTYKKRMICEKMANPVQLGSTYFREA

[11] = target: T10, recombinant human FcRn (human, UniProt P55899 24-297; P61769 21-119); assay: SPR 25C, pH 6.0, steady state; pH 6.0; fourth replicate
T10 construct: also called hFcRn

Kd [1]: 797 nM
koff [1]: 0.135 s⁻¹
kon [1]: 169000 M⁻¹ s⁻¹
Kd [2]: 322 nM
koff [2]: 0.0278 s⁻¹
kon [2]: 86400 M⁻¹ s⁻¹
EC50, rested NK cell lysis of PL21 cells (mean of six donors) [3]: 0.25 nM
% Max, ADCP activity of M0 macrophages against PL21 cells [4]: 15%
EC50, ADCP activity of M0 macrophages against PL21 cells [4]: 0.03 nM
koff [5]: 0.0481 s⁻¹
B1: AB0089 TriNKET (bispecific antibody, human IgG1, kappa)
chain: QLQLQESGPGLVKPSETLSLTCTVSGFSLTNYGLHWIRQPPGKCLEWIGVIWVGGATDYNPSLKSRVTISVDTSKNQFSLKLSSVQAADTAVYYCAKGDYGDTLDYWGQGTLVTVSSGGGGSGGGGSGGGGSGGGGSDIQMTQSPSSLSASVGDRVTITCHASQNINFWLSWYQQKPGKAPKLLIYEASNLHTGVPSRFSGSGSGTDFTLTISSLQPEDFATYYCQQSHSYPLTFGCGTKLEIKGSDKTHTCPPCPAPELLGGPSVFLFPPKPKDTLMISRTPEVTCVVVDVSHEDPEVKFNWYVDGVEVHNAKTKPREEQYNSTYRVVSVLTVLHQDWLNGKEYKCKVSNKALPAPIEKTISKAKGQPREPRVYTLPPCRDELTKNQVSLTCLVKGFYPSDIAVEWESNGQPENNYKTTPPVLVSDGSFTLYSKLTVDKSRWQQGNVFSCSVMHEALHNHYTQKSLSLSPG
heavy: EVQLVESGGGLVKPGGSLRLSCAASGFTFSSYSMNWVRQAPGKGLEWVSSISSSSSYIYYADSVKGRFTISRDNAKNSLYLQMNSLRAEDTAVYYCARGAPIGAAAGWFDPWGQGTLVTVSSASTKGPSVFPLAPSSKSTSGGTAALGCLVKDYFPEPVTVSWNSGALTSGVHTFPAVLQSSGLYSLSSVVTVPSSSLGTQTYICNVNHKPSNTKVDKKVEPKSCDKTHTCPPCPAPELLGGPSVFLFPPKPKDTLMISRTPEVTCVVVDVSHEDPEVKFNWYVDGVEVHNAKTKPREEQYNSTYRVVSVLTVLHQDWLNGKEYKCKVSNKALPAPIEKTISKAKGQPREPQVCTLPPSRDELTENQVSLTCLVKGFYPSDIAVEWESNGQPENNYKTTPPVLDSDGSFFLYSWLTVDKSRWQQGNVFSCSVMHEALHNHYTQKSLSLSPG
light: DIQMTQSPSSVSASVGDRVTITCRASQGISSWLAWYQQKPGKAPKLLIYAASSLQSGVPSRFSGSGSGTDFTLTISSLQPEDFATYYCQQGVSFPRTFGGGTKVEIKRTVAAPSVFIFPPSDEQLKSGTASVVCLLNNFYPREAKVQWKVDNALQSGNSQESVTEQDSKDSTYSLSSTLTLSKADYEKHKVYACEVTHQGLSSPVTKSFNRGEC
notes: F3' format heterodimer of three chains; human IgG1 Fc with EW-RVT and Y349C/S354C mutations; also called AB0089 Lot AB0089-002; CLEC12A TriNKET AB0089

Kd [6]: 773 nM and 634 nM and 693 nM and 620 nM
Kd [7]: 203 nM and 205 nM and 204 nM
Kd [8]: 4.51 nM
koff [8]: 0.0037 s⁻¹
kon [8]: 824000 M⁻¹ s⁻¹
Kd [9]: 770 nM and 783 nM and 788 nM
B2: AB0192 TriNKET (other)
chain: EVQLVESGGGVVQPGGSLRLSCAASGFTFNAFGMHWVRQAPGKCLEWVAFISSGSTSIYYANTVKGRFTISRDNSKNTLYLQMNSLRAEDTAVYYCARDGYPTGGAMDYWGQGTSVTVSSGGGGSGGGGSGGGGSGGGGSDIQMTQSPSSLSASVGDRVTITCKASQDIYNYLSWFQQKPGKAPKPLIYRANILVSGVPSRFSGSGSGQDYTFTISSLQPEDIATYYCLQFDAFPFTFGCGTKLEIKGSDKTHTCPPCPAPELLGGPSVFLFPPKPKDTLMISRTPEVTCVVVDVSHEDPEVKFNWYVDGVEVHNAKTKPREEQYNSTYRVVSVLTVLHQDWLNGKEYKCKVSNKALPAPIEKTISKAKGQPREPRVYTLPPCRDELTKNQVSLTCLVKGFYPSDIAVEWESNGQPENNYKTTPPVLVSDGSFTLYSKLTVDKSRWQQGNVFSCSVMHEALHNHYTQKSLSLSPG
heavy: EVQLVESGGGLVKPGGSLRLSCAASGFTFSSYSMNWVRQAPGKGLEWVSSISSSSSYIYYADSVKGRFTISRDNAKNSLYLQMNSLRAEDTAVYYCARGAPIGAAAGWFDPWGQGTLVTVSSASTKGPSVFPLAPSSKSTSGGTAALGCLVKDYFPEPVTVSWNSGALTSGVHTFPAVLQSSGLYSLSSVVTVPSSSLGTQTYICNVNHKPSNTKVDKKVEPKSCDKTHTCPPCPAPELLGGPSVFLFPPKPKDTLMISRTPEVTCVVVDVSHEDPEVKFNWYVDGVEVHNAKTKPREEQYNSTYRVVSVLTVLHQDWLNGKEYKCKVSNKALPAPIEKTISKAKGQPREPQVCTLPPSRDELTENQVSLTCLVKGFYPSDIAVEWESNGQPENNYKTTPPVLDSDGSFFLYSWLTVDKSRWQQGNVFSCSVMHEALHNHYTQKSLSLSPG
light: DIQMTQSPSSVSASVGDRVTITCRASQGISSWLAWYQQKPGKAPKLLIYAASSLQSGVPSRFSGSGSGTDFTLTISSLQPEDFATYYCQQGVSFPRTFGGGTKVEIKRTVAAPSVFIFPPSDEQLKSGTASVVCLLNNFYPREAKVQWKVDNALQSGNSQESVTEQDSKDSTYSLSSTLTLSKADYEKHKVYACEVTHQGLSSPVTKSFNRGEC
notes: the condition stands under assay; also called AB0192 Lot AB0192-005

fold lower KD than F3'-1295 [10]: ~2 fold
Kd [11]: 1600 nM
B3: F3'-1602 TriNKET (other)
chain: QLQLQESGPGLVKPSETLSLTCTVSGFSLTNYGLHWIRQPPGKCLEWIGVIWSGGKTDYNPSLKSRVTISKDTSKNQFSLKLSSVQAADTAVYYCAKYDYDDSLDYWGQGTLVTVSSGGGGSGGGGSGGGGSGGGGSDIQMTQSPSSLSASVGDRVTITCHASQNINFWLSWYQQKPGKAPKLLIYEASNLHTGVPSRFSGSGSGTRFTLTISSLQPEDIATYYCQQSHSYPLTFGCGTKLEIKGSDKTHTCPPCPAPELLGGPSVFLFPPKPKDTLMISRTPEVTCVVVDVSHEDPEVKFNWYVDGVEVHNAKTKPREEQYNSTYRVVSVLTVLHQDWLNGKEYKCKVSNKALPAPIEKTISKAKGQPREPRVYTLPPCRDELTKNQVSLTCLVKGFYPSDIAVEWESNGQPENNYKTTPPVLVSDGSFTLYSKLTVDKSRWQQGNVFSCSVMHEALHNHYTQKSLSLSPG
heavy: EVQLVESGGGLVKPGGSLRLSCAASGFTFSSYSMNWVRQAPGKGLEWVSSISSSSSYIYYADSVKGRFTISRDNAKNSLYLQMNSLRAEDTAVYYCARGAPIGAAAGWFDPWGQGTLVTVSSASTKGPSVFPLAPSSKSTSGGTAALGCLVKDYFPEPVTVSWNSGALTSGVHTFPAVLQSSGLYSLSSVVTVPSSSLGTQTYICNVNHKPSNTKVDKKVEPKSCDKTHTCPPCPAPELLGGPSVFLFPPKPKDTLMISRTPEVTCVVVDVSHEDPEVKFNWYVDGVEVHNAKTKPREEQYNSTYRVVSVLTVLHQDWLNGKEYKCKVSNKALPAPIEKTISKAKGQPREPQVCTLPPSRDELTENQVSLTCLVKGFYPSDIAVEWESNGQPENNYKTTPPVLDSDGSFFLYSWLTVDKSRWQQGNVFSCSVMHEALHNHYTQKSLSLSPG
light: DIQMTQSPSSVSASVGDRVTITCRASQGISSWLAWYQQKPGKAPKLLIYAASSLQSGVPSRFSGSGSGTDFTLTISSLQPEDFATYYCQQGVSFPRTFGGGTKVEIKRTVAAPSVFIFPPSDEQLKSGTASVVCLLNNFYPREAKVQWKVDNALQSGNSQESVTEQDSKDSTYSLSSTLTLSKADYEKHKVYACEVTHQGLSSPVTKSFNRGEC
notes: CLEC12A scFv-Fc, NKG2D A49MI Fab-Fc, human IgG1 Fc; also called AB0237
